Assay results from patent publication US20220220215A1 (CRESCENDO BIOLOGICS, published 2022).

Tests used:
[1] = molecular target: T1, human PD-1 expressed on CHO cells (human, UniProt Q15116 21-288); test: FMAT/Mirrorball on CHO huPD1 cells
T1 construct: also called CHO huPD1; CHO human PD1 cells
Method: (§1) Binding of His-tagged molecules to CHO human CD137, CHO parent and CHO human PD1 cells was assessed using Fluorescence Microvolume Assay Technology (FMAT). All reagents were prepared in FMAT assay buffer (pH 7.4) containing PBS, 0.1% Bovine Serum Albumin, 0.05% Sodium Azide. […] Fluorescence emission was then measured on the TTP Mirrorball plate reader in the FL2 (502 nm-537 nm) and FL5 (677-800 nm) channels following excitation at 488 nm and 640 nm. Data was gated on FL5 perimeter and peak intensity and the FL2 median mean fluorescence intensity of the gated data used for determination of VH binding. Monovalent CD137 specific Humabody® VH, and trispecific molecules with a CD137 binding arm bound to CHO CD137 expressing cells. Trispecific Humabody® VH, with a PD1 binding arm bound to PD1 expressing cells.

[2] = molecular target: T2, human CD137 expressed on CHO cells (human, UniProt Q07011 18-255); test: FMAT/Mirrorball on CHO huCD137 cells
T2 construct: also called CHO huCD137; CHO human CD137 cells
Method: as §1

[3] = molecular target: T3, Rhesus CD137-Fc tagged protein (rhesus, UniProt H9Z8K9 24-186); test: BLI (Octet RED384), CD137-Fc on Protein G sensor, 1:1 model
T3 construct: extracellular domain; The Octet paragraph gives no catalogue number; also called rhCD137-Fc
Method: Binding kinetics of purified monovalent VH molecules were measured on a ForteBio Octet RED 384 instrument. Human and Rhesus CD137-Fc tagged protein was diluted to 5 μg/ml in kinetics buffer (0.05% Tween, 1×PBS) and coupled to Protein G biosensors (ForteBio cat no. 18-5082) via the Fc tag. VH were serially diluted (typically 1:2 dilution series starting with 200 nM, VH at the highest concentration) and binding to the CD137-Fc-coupled Protein G biosensors measured. Binding kinetics were determined from the (blank subtracted) sensor gram trace using 1:1 binding models and ForteBio Octet Data Analysis 9.0 software. Example kinetic and binding affinity data obtained is shown Table 18 (monovalent VH).

[4] = molecular target: T4, recombinant Fc-tagged ectodomain of human CD137 (Acro Biosystems 41B-H5258) (human, UniProt Q07011 24-186); test: SPR, Biacore 8K, single-cycle kinetics; Fc-tagged ectodomain captured on Protein G chip; 1:1 model
T4 construct: Bought protein; not shown: Fc tag
Method: (§2) Binding of Humabody® VH constructs was measured using a single-cycle kinetics method using the BIAcore 8K instrument with 90 second sample injections with a sample concentration range of low nanomolar to high nanomolar. […] The Protein G sensor surface was regenerated with a 20 second injection of 10 mM Glycine buffer, pH 1.5 (GE Healthcare BR100354). Data were analysed using a 1:1 binding model in Biacore Insight Evaluation software, including Humabody® VH constructs with two PD-1 arms.

[5] = molecular target: T5, recombinant Fc-tagged ectodomain of human PD1 (Acro Biosystems PD1-H5257) (human, UniProt Q15116 25-170); test: as above
T5 construct: Bought protein; not shown: Fc tag
Method: as §2

[6] = molecular target: human CD137 expressed on cells (Jurkat human CD137 NF-kB luciferase reporter cells; human CD8+ T cells) (human, UniProt Q07011 24-255); test: cell-based or functional assay

| Binder | EC50 [2] [nM] | Kd [3] [nM] | koff [3] [s⁻¹] | kon [3] [M⁻¹ s⁻¹] | Kd [4] [nM] | koff [4] [s⁻¹] | kon [4] [M⁻¹ s⁻¹] | Kd [5] [nM] | koff [5] [s⁻¹] | kon [5] [M⁻¹ s⁻¹] | other results |
| --- | --- | --- | --- | --- | --- | --- | --- | --- | --- | --- | --- |
| 003BB172-E01-9 (VHH, Human VH single domain antibody, monovalent) VHH: EVQLVESGGGLVQPGGSLRLSCAASGFTFSNYGMHWVRQAPGKGLEWVAVISNDGNTKTYADSVKGRFTISRDNSKNTLYLQMNSLRAEDTAVYYCAQDETTTVTASYYFDYWGQGTLVTVSS | 0.849 | 23 | 0.00235 | 102000 | – | – | – | – | – | – | – |
| 003BB172-E01-10 (VHH, Human VH single domain antibody, monovalent) VHH: EVQLVESGGGLVQPGRSLRLSCAASGFTFSNYGMHWVRQAPGKGLEWVAVISNDGNTKTYADSVKGRFTISRDNSKNTLYLQMNSLRTEDTAVYYCAQDETTTVTASYYFDYWGQGTLVTVSS | 1.22 | 36.9 | 0.00249 | 67400 | – | – | – | – | – | – | – |
| 003BB172-E01-11 (VHH, Human VH single domain antibody, monovalent) VHH: EVQLVESGGGVVQPGRSLRLSCAASGFTFSNYGMHWVRQAPGKGLEWVAVISNDGNTKTYADSVKGRFTISRDNSKNTLYLQMNSLRTEDTAVYYCAQDETTTVTASYYFDYWGQGTLVTVSS | 1.21 | 33.1 | 0.0024 | 72500 | – | – | – | – | – | – | – |
| 003BB172-E01-13 (VHH, Human VH single domain antibody, monovalent; also called CD137D; 172E1-13) VHH: EVQLVESGGGVVQPGGSLRLSCAASGFTFSNYGMHWVRQAPGKGLEWVAVISNDGNTKTYADSVKGRFTISRDNSKNTLYLQMNSLRAEDTAVYYCAQDETTTVTASYYFDYWGQGTLVTVSS | 0.954 | 22.8 | 0.00253 | 111000 | – | – | – | – | – | – | – |
| 003BB172-E01-12 (VHH, Human VH single domain antibody, monovalent) VHH: EVQLVESGGGLVQPGRSLRLSCAASGFTFSNYGMHWVRQAPGKGLEWVAVISNDGNTKTYADSVKGRFTISRDNSKNTLYLQMNSLRAEDTAVYYCAQDETTTVTASYYFDYWGQGTLVTVSS | 1.21 | 38.6 | 0.0023 | 59700 | – | – | – | – | – | – | – |
| TPP-1025: CD137A -6GS-HSA3-2-6GS-PDA2-His (bispecific antibody, Single-chain VH fusion (CD137 VH, HSA VH, PD-1 VH), His tag) EVQLVESGGGLVQPGGSLRLSCAASGFTLSNYWMNWVRQAPGKGLEWVANINQDGSERYYVDSVKGRFTISRDNAKNSLYLQMNSLRAEDTAVYYCARGGEGYGVDHYGLDVSGQGTTVTVSSGGGGSGGGGSGGGGSGGGGSGGGGSGGGGSEVQLLESGGGLVKPGGSLRLSCAASGFTVSSYTMNWVRQAPGKGLEWVSSISSSGRYIYYADSVKGRFTISRDNAKNSLYLQMNSLRAEDTAVYYCARDPRMVGNPHEFDIWGQGTMVTVSSGGGGSGGGGSGGGGSGGGGSGGGGSGGGGSEVQLVESGGGVVRPGGSLRLSCAASGFTFDDYAMSWVRQAPGKGLEWVSGITWNAGSTGYADSVKGRFTISRDNAKNSLYLQMNSLRAEDTALYYCVRDKYSYAWSYDDFDIWGQGTMVTVSSAAAHHHHHH | – | – | – | – | – | – | – | – | – | – | EC50 [1]: 1.23 nM |

The next lines start with results.

| EC50 [2] [nM] | Kd [3] [nM] | koff [3] [s⁻¹] | kon [3] [M⁻¹ s⁻¹] | Kd [4] [nM] | koff [4] [s⁻¹] | kon [4] [M⁻¹ s⁻¹] | Kd [5] [nM] | koff [5] [s⁻¹] | kon [5] [M⁻¹ s⁻¹] | Binder | other results |
| --- | --- | --- | --- | --- | --- | --- | --- | --- | --- | --- | --- |
| 0.157 | – | – | – | – | – | – | – | – | – | TPP-942: PDA-6GS-172E1-13-6GS-HSA2-2-His (bispecific antibody, Single-chain fusion of VH single domains (PD-1 VH, CD137 VH, HSA VH) joined by 6GS linkers, His tag) EVQLVESGGGLVQPGRSLRLSCAASGFTFDDYALHWVRQAPGKDLEWVSGISWNGGSYGYADSVKGRFTISRDNAKNSLYLQMNSLRAEDTALYYCVREKGPGLTGSTADYYGLDAWGQGTMVTVSSGGGGSGGGGSGGGGSGGGGSGGGGSGGGGSEVQLVESGGGVVQPGGSLRLSCAASGFTFSNYGMHWVRQAPGKGLEWVAVISNDGNTKTYADSVKGRFTISRDNSKNTLYLQMNSLRAEDTAVYYCAQDETTTVTASYYFDYWGQGTLVTVSSGGGGSGGGGSGGGGSGGGGSGGGGSGGGGSEVQLVESGGGLVKPGGSLRLSCAASGFTFSNYNMNWVRQAPGKGLEWVSSISSAGTHIYYADSVKGRFTISRDNAKNSLYLQMNSLRAEDTAVYYCARDPHSTGWYKDFDYWGQGTLVTVSSAAAHHHHHH | EC50 [1]: 0.164 nM |
| – | – | – | – | 1.93 | 0.000208 | 108000 | 4.98 | 0.00267 | 537000 | TPP-1411 PD138G7(G109D)-1GS-CD137A-1GS-HSA2 (bispecific antibody) EVQLVESGGGVVRPGGSLRLSCAASGFTFDDYAMSWVRQAPGKGLEWVSGITWNGGSTGYADSVKDRFTISRDNAKNSLYLQMNSLRAEDTALYYCVRDKYSYAWSYDDFDIWGQGTMVTVSSGGGGSEVQLVESGGGLVQPGGSLRLSCAASGFTLSNYWMNWVRQAPGKGLEWVANINQDGSERYYVDSVKGRFTISRDNAKNSLYLQMNSLRAEDTAVYYCARGGEGYGVDHYGLDVSGQGTTVTVSSGGGGSEVQLVESGGGLVKPGGSLRLSCAASGFTFSNYNMNWVRQAPGKGLEWVSSISSAGTHIYYADSVKGRFTISRDNAKNSLYLQMNSLRAEDTAVYYCARDPHSTGWYKDFDYWGQGTLVTVSS | – |
| – | – | – | – | 1.47 | 0.000121 | 81800 | 7.57 | 0.00224 | 296000 | TPP-1410 PD138G7(G109D)-1GS-CD137A-6GS-HSA2 (bispecific antibody) EVQLVESGGGVVRPGGSLRLSCAASGFTFDDYAMSWVRQAPGKGLEWVSGITWNGGSTGYADSVKDRFTISRDNAKNSLYLQMNSLRAEDTALYYCVRDKYSYAWSYDDFDIWGQGTMVTVSSGGGGSEVQLVESGGGLVQPGGSLRLSCAASGFTLSNYWMNWVRQAPGKGLEWVANINQDGSERYYVDSVKGRFTISRDNAKNSLYLQMNSLRAEDTAVYYCARGGEGYGVDHYGLDVSGQGTTVTVSSGGGGSGGGGSGGGGSGGGGSGGGGSGGGGSEVQLVESGGGLVKPGGSLRLSCAASGFTFSNYNMNWVRQAPGKGLEWVSSISSAGTHIYYADSVKGRFTISRDNAKNSLYLQMNSLRAEDTAVYYCARDPHSTGWYKDFDYWGQGTLVTVSS | – |
| – | – | – | – | 2.02 | 0.000307 | 152000 | 4.16 | 0.00241 | 580000 | TPP-1409 CD137A-1GS-HSA2-1GS-PD138G7(G109D) (bispecific antibody) EVQLVESGGGLVQPGGSLRLSCAASGFTLSNYWMNWVRQAPGKGLEWVANINQDGSERYYVDSVKGRFTISRDNAKNSLYLQMNSLRAEDTAVYYCARGGEGYGVDHYGLDVSGQGTTVTVSSGGGGSEVQLVESGGGLVKPGGSLRLSCAASGFTFSNYNMNWVRQAPGKGLEWVSSISSAGTHIYYADSVKGRFTISRDNAKNSLYLQMNSLRAEDTAVYYCARDPHSTGWYKDFDYWGQGTLVTVSSGGGGSEVQLVESGGGVVRPGGSLRLSCAASGFTFDDYAMSWVRQAPGKGLEWVSGITWNGGSTGYADSVKDRFTISRDNAKNSLYLQMNSLRAEDTALYYCVRDKYSYAWSYDDFDIWGQGTMVTVSS | Jurkat-CD137/CHO-PD-1 Reporter Assay EC50 [6]: 0.134 nM |
| 0.207 | – | – | – | – | – | – | – | – | – | TPP-943: PDA-6GS-172E1-13-6GS-HSA2-His (bispecific antibody, Single-chain VH fusion) EVQLVESGGGLVQPGRSLRLSCAASGFTFDDYALHWVRQAPGKDLEWVSGISWNGGSYGYADSVKGRFTISRDNAKNSLYLQMNSLRAEDTALYYCVREKGPGLTGSTADYYGLDAWGQGTMVTVSSGGGGSGGGGSGGGGSGGGGSGGGGSGGGGSEVQLVESGGGVVQPGGSLRLSCAASGFTFSNYGMHWVRQAPGKGLEWVAVISNDGNTKTYADSVKGRFTISRDNSKNTLYLQMNSLRAEDTAVYYCAQDETTTVTASYYFDYWGQGTLVTVSSGGGGSGGGGSGGGGSGGGGSGGGGSGGGGSEVQLLESGGGLVKPGGSLRLSCAASGFTVSSYTMNWVRQAPGKGLEWVSSISSSGRYIYYADSVKGRFTISRDNAKNSLYLQMNSLRAEDTAVYYCARDPRMVGNPHEFDIWGQGTMVTVSSAAAHHHHHH | EC50 [1]: 0.144 nM |
| – | – | – | – | 95.1 | 0.00383 | 40300 | 4.45 | 0.00113 | 255000 | TPP-1408 PD138G7(G109D)-1GS-HSA2-1GS-CD137D (bispecific antibody) EVQLVESGGGVVRPGGSLRLSCAASGFTFDDYAMSWVRQAPGKGLEWVSGITWNGGSTGYADSVKDRFTISRDNAKNSLYLQMNSLRAEDTALYYCVRDKYSYAWSYDDFDIWGQGTMVTVSSGGGGSEVQLVESGGGLVKPGGSLRLSCAASGFTFSNYNMNWVRQAPGKGLEWVSSISSAGTHIYYADSVKGRFTISRDNAKNSLYLQMNSLRAEDTAVYYCARDPHSTGWYKDFDYWGQGTLVTVSSGGGGSEVQLVESGGGVVQPGGSLRLSCAASGFTFSNYGMHWVRQAPGKGLEWVAVISNDGNTKTYADSVKGRFTISRDNSKNTLYLQMNSLRAEDTAVYYCAQDETTTVTASYYFDYWGQGTLVTVSS | – |
